T1: SIRPα V6 fusion Fc (mouse IgG2a) (human, limits assumed)
T1 chain: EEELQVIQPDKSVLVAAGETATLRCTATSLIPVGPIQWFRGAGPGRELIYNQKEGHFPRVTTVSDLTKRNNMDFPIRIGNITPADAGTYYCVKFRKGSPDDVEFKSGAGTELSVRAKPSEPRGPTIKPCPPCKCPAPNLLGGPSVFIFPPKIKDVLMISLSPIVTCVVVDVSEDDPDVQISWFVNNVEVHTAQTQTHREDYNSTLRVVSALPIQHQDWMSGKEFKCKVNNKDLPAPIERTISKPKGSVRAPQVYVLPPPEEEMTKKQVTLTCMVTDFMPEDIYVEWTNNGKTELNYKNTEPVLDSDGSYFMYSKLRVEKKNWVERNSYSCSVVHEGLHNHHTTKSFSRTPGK

T2: SIRPα V9 fusion Fc (mouse IgG2a) (human, limits assumed)
T2 chain: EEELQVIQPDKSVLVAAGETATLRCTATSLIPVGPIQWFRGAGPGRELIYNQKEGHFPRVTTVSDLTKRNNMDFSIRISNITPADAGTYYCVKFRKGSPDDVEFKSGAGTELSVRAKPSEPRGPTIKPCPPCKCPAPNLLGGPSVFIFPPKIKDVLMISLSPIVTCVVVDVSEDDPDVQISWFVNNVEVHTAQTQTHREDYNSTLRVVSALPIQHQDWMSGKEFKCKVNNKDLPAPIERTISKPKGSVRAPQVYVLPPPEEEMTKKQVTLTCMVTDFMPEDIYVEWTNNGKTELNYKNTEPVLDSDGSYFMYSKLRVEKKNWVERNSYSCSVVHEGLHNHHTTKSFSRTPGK

T3: QP535 (SIRPαV6-mFC(mIgG2a)) (human, limits assumed)
T3 construct: also called human SIRPα V6 recombinant protein (QP535)
T3 chain: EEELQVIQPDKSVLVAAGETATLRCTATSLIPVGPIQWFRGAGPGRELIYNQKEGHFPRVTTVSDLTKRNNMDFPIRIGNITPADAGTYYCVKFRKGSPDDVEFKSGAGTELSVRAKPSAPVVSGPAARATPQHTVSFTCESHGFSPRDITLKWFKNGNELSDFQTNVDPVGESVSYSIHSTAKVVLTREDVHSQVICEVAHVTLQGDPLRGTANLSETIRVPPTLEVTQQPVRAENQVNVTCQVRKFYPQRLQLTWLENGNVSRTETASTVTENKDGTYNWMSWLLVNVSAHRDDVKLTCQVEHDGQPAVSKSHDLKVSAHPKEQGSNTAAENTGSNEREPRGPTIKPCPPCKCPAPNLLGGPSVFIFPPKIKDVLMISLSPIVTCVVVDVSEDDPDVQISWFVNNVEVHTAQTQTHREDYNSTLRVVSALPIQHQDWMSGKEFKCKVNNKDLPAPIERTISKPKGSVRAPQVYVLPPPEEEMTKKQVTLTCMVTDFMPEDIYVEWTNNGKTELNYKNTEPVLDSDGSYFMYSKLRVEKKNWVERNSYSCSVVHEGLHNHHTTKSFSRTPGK

T4: QP093 (human SIRPα V1 ECD(E31-R370)-mFC(IgG2a)) (human)
T4 construct: also called Human SIRPα V1 recombinant protein (QP093)
T4 chain: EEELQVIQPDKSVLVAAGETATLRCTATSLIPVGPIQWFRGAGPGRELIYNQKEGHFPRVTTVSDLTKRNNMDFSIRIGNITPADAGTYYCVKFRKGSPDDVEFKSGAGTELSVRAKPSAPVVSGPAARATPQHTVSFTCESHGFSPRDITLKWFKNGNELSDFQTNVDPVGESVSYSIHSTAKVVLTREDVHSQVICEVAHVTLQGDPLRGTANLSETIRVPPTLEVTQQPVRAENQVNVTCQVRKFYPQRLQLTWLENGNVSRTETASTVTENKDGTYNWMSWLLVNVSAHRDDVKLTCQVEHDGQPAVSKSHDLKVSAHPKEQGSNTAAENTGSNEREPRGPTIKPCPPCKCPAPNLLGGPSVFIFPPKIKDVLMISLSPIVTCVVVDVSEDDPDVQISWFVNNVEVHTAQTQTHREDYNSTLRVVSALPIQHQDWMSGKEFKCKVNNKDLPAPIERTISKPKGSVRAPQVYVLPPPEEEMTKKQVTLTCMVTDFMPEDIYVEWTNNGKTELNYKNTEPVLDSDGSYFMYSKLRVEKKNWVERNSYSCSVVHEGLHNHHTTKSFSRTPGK

B1: QP256279 (antibody, human IgG4, V domains shown)
VH: QVQLVQSGAEVKKPGASVKVSCKASGYTFTNYWINWVRQAPGQGLEWIAMIDPSDSETHYNQIFKDRATLTTDTSTSTAYMELRSLRSDDTAVYYCAMDYGSLYAMDYWGRGTLVTVSS
VL: DIVLTQSPDSLAVSLGERATINCRASQSVRSSGYNWIFWYQQKPGQPPKLLIYLASNRDSGVPDRFSGSGSGTDFTLTISSLQAEDVAVYYCQHSRELPTFGQGTKLEIK
notes: Human IgG4 heavy constant region and kappa CL
B2: QP32700279 (antibody, human IgG1, kappa, L234A L235A, V domains shown)
VH: QVQLVQSGAEVKKPGASVKVSCKASGYTFTNYWINWVRQAPGQGLEWIAMIDPSDSETHYNQIFKDRATLTTDTSTSTAYMELRSLRSDDTAVYYCAMDYGSLYAMDYWGRGTLVTVSS
VL: DIVLTQSPDSLAVSLGERATINCRASQSVRSSGYNWIFWYQQKPGQPPKLLIYLASNRDSGVPDRFSGSGSGTDFTLTISSLQAEDVAVYYCQHSRELPTFGQGTKLEIKR
notes: also called SIRPα monoclonal antibody CHO71
B3: QP250251 (18D5 analog) (antibody, human IgG4 S228P, kappa, V domains shown)
VH: QVQLQQPGAELVRPGSSVKLSCKASGYTFTSYWVHWVKQRPIQGLEWIGNIDPSDSDTHYNQKFKDKASLTVDKSSSTAYMQLSSLTFEDSAVYYCVRGGTGTMAWFAYWGQGTLVTVSA
VL: DVVMTQTPLSLPVSLGDQASISCRSSQSLVHSYGNTYLYWYLQKPGQSPKLLIYRVSNRFSGVPDRFSGSGSGTDFTLKISRVEAEDLGVYFCFQGTHVPYTFGSGTKLEIKR
notes: also called SIRPα antibody 18D5 from OSE
B4: QP026249 (KWAR23 analog) (antibody, human IgG4 S228P, kappa)
heavy: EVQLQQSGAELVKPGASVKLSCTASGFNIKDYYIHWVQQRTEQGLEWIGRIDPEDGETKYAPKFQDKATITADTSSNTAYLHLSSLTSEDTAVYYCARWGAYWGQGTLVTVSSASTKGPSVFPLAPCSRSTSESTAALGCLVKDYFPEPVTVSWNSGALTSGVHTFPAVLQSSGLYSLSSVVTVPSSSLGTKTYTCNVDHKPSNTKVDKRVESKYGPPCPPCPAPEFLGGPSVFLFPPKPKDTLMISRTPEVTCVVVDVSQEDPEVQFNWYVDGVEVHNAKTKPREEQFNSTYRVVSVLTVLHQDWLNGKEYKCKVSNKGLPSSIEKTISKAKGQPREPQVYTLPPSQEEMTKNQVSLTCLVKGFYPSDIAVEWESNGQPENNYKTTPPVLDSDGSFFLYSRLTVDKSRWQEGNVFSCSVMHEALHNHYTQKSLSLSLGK
light: QIVLTQSPAIMSASPGEKVTLTCSASSSVSSSYLYWYQQKPGSSPKLWIYSTSNLASGVPARFSGSGSGTSYSLTISSMEAEDAASYFCHQWSSYPRTFGAGTKLELKRTVAAPSVFIFPPSDEQLKSGTASVVCLLNNFYPREAKVQWKVDNALQSGNSQESVTEQDSKDSTYSLSSTLTLSKADYEKHKVYACEVTHQGLSSPVTKSFNRGEC
notes: also called KAWA23 analog; control antibody KWAR23 (QP026249), human IgG4
B5: QP37503751 (1H9 analog) (antibody, human IgG1, kappa, N297A, V domains shown)
VH: QVQLVQSGAEVKKPGASVKVSCKASGYTFTSYWITWVKQAPGQGLEWIGDIYPGSGSTNHIEKFKSKATLTVDTSISTAYMELSRLRSDDTAVYYCATGYGSSYGYFDYWGQGTLVTVSS
VL: DIQMTQSPSSLSASVGDRVTITCRASENIYSYLAWYQQKPGKAPKLLIYTAKTLAEGVPSRFSGSGSGTDFTLTISSLQPEDFATYYCQHQYGPPFTFGQGTKLEIKR
notes: also called hz1H9 hIgG1(N297A)

What was measured:
[1] = target: T1, SIRPα V6 fusion Fc (mouse IgG2a); assay: ELISA, SIRPα V6-mouse IgG2a Fc coated, anti-hFab detection; unit from the x axis Log(Conc.(nM))
[2] = target: T2, SIRPα V9 fusion Fc (mouse IgG2a); assay: ELISA, SIRPα V9-mouse IgG2a Fc coated, anti-hFab detection; unit from the x axis Log(Conc.(nM))
[3] = target: T3, QP535 (SIRPαV6-mFC(mIgG2a)); assay: ELISA, human SIRPα V6 recombinant protein (QP535) coated, HRP anti-human Fc detection
QP093 (human SIRPα V1 …) = target: T4, QP093 (human SIRPα V1 …); assay: ELISA, human SIRPα V1 recombinant protein (QP093) coated, HRP anti-human Fc detection
[4] = target: T5, human SIRPα V1 on U-937 cells (human, UniProt P78324 31-504); assay: FACS on U-937 cells
T5 construct: whole, on cells

[5] = target: T6, human SIRPα V2 on THP-1 cells (human, UniProt P78324 31-504); assay: FACS on THP-1 cells
T6 construct: whole, on cells; also called THP-1 (human SIRPα V2)

QP095 (human SIRPα V2 …) = target: T7, QP095 (human SIRPα V2 ECD(E31-R370)-mFC(IgG2a)) (human); assay: ELISA, human SIRPα V2 recombinant protein (QP095) coated, HRP anti-human Fc detection
T7 construct: also called human SIRPα V2 recombinant protein (QP095)

T6 sequence (P78324 other isoform, or with tags, fused parts or gaps limits assumed): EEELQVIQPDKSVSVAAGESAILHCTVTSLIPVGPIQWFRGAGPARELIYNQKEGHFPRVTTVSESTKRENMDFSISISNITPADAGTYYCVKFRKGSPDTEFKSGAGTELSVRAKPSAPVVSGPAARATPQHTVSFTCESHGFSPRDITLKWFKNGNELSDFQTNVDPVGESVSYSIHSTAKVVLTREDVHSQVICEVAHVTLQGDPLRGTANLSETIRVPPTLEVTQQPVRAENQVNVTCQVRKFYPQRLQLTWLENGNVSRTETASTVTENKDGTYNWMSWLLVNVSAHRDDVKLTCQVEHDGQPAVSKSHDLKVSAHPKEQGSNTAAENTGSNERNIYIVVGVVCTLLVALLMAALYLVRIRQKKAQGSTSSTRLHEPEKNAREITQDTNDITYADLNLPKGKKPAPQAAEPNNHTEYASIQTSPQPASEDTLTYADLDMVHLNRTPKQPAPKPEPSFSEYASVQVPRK

| Binder | EC50 [1] | EC50 [2] | EC50 [3] | EC50 (QP093 (human SIRPα V1 …)) | EC50 [4] | EC50 [5] | EC50 (QP095 (human SIRPα V2 …)) | binding result [5] |
| --- | --- | --- | --- | --- | --- | --- | --- | --- |
| B1 | 0.053 nM | 0.0874 nM | – | – | – | – | – | – |
| B2 | – | – | 0.224 nM | 0.161 nM | 0.076 nM | 0.0743 nM | 0.186 nM | – |
| B3 | 0.114 nM | 0.157 nM | 0.884 nM | 0.438 nM | 0.581 nM | – | – | no binding |
| B4 | 0.119 nM | 0.181 nM | 0.603 nM | 0.442 nM | 0.21 nM | 0.261 nM | 0.467 nM | – |
| B5 | – | – | 0.273 nM | 0.177 nM | 0.158 nM | 0.21 nM | 0.218 nM | – |
